This is an account of results in publication PMC7311308.

pKd: −log10 of the molar value.

For this assay, the target named is CD46-D4.

For the substance Ad26 knob (domain or fragment), the pKd was 6.92.
